Measured values reported in PMC13290226, “Intraflagellar transport protein IFT172 contains a C-terminal ubiquitin-binding U-box-like domain involved in ciliary signaling” (eLife, 2026).

How the values were obtained:
Assay in all cases: pull-down; GST-tagged HsIFT172 constructs (10 μM; 5 μM in Figure 4C) immobilised on GSH beads; prey 20 μM UbcH5a~Ub or 15-25 μM tetra-ubiquitin in 50 mM Tris pH 7.5, 100 mM NaCl, 1 mM DTT, 4 °C, 2 hr; eluted with glutathione; Coomassie and anti-ubiquitin western blot
Conditions in all cases: both partners purified
[1] = target: T1, UbcH5a_(C85S)~Ub conjugate (WT) (human, UniProt P51668 1-147; P0CG48 1-76, C85S, oxyester link from Ser85 (C85S) to ubiquitin | oxyester-linked to UbcH5a Ser85)
T1 construct: Homo sapiens UbcH5a (E2 enzyme), full length, active site cysteine mutated to serine; Homo sapiens ubiquitin; Protocol adapted from Middleton et al., 2014; also called WT UbcH5a~Ub conjugate; E2~Ub conjugate

[2] = target: T2, UbcH5a_(C85S)~Ub conjugate, UbcH5a F62A (human, UniProt P51668 1-147; P0CG48 1-76, C85S | F62A, oxyester link from Ser85 (C85S) to ubiquitin | oxyester-linked to UbcH5a Ser85)
T2 construct: Homo sapiens UbcH5a, full length, C85S and F62A; Homo sapiens ubiquitin; source: in vitro charging reaction of proteins purified from E. coli, purified

[3] = target: T3, UbcH5a_(C85S)~Ub conjugate, UbcH5a A96D (human, UniProt P51668 1-147; P0CG48 1-76, C85S | A96D, oxyester link from Ser85 (C85S) to ubiquitin | oxyester-linked to UbcH5a Ser85)
T3 construct: Homo sapiens UbcH5a, full length, C85S and A96D; Homo sapiens ubiquitin; source: in vitro charging reaction of proteins purified from E. coli, purified

Measured: binding result

B1: GST-tagged HsIFT172C2 (His-GST-TEV-HsIFT172_(1470-C)) (domain or fragment, human, UniProt Q9UG01 1470-1749, looked up)
chain: GAPANPQNFNIYKRIFTDMVSSPGTNCAEAYHSWADLRDVLFNLCENLVKSSEANSPAHEEFKTMLLIAHYYATRSAAQSVKQLETVAARLSVSLLRHTQLLPVDKAFYEAGIAAKAVGWDNMAFIFLNRFLDLTDAIEEGTLDGLDHSDFQDTDIPFEVPLPAKQHVPEAEREEVRDWVLTVSMDQRLEQVLPRDERGAYEASLVAASTGVRALPCLITGYPILRNKIEFKRPGKAANKDNWNKFLMAIKTSHSPVCQDVLKFISQWCGGLPSTSFSFQ
notes: also called GST-HsIFT172C2; source: E. coli BL21 (DE3), purified (Ni-NTA, Q anion exchange, SEC); not shown: GST, N-terminal, kept
binds: [1] | [2] | [3]
